The stoichiometry N is the number of molecules, sites or subunits per partner or assembly. Broadly, the Kd is a measure of binding affinity in units of concentration. A high value points to weaker binding. Usually kon stands for the second-order rate constant of association. Read a low kon as slow association.

Assay [1] concerns the target ATG101 (human) (UniProt Q9BSB4). As to the kind of experiment: cross-linking.
Assay [2] has the same target. Nature of the assay: mass photometry.
Assay [3] addresses ATG101 co-expressed with ULK1 (human) (UniProt Q9BSB4). As to the kind of experiment: mass photometry.
In assay [4] the target is His-ATG101 (human) (UniProt Q9BSB4). Nature of the assay: mass photometry.
Assay [5] concerns the target phospho-mimetic ATG101 mutants S11D and S203D (human) (UniProt Q9BSB4). Nature of the assay: mass photometry.
The target of assay [6] is phosphorylated ATG101 (His-ATG101 phosphorylated in vitro by ULK1) (human) (UniProt Q9BSB4). Nature of the assay: mass photometry.
Assay [7] deals with phosphorylated ATG101 purified from insect cells treated with Okadaic Acid (human) (UniProt Q9BSB4). As to the kind of experiment: mass photometry.
Assay [8] has as its target ATG13-ATG101^Alexa488 (pre-formed complex) (UniProt Q9BSB4). As to the kind of experiment: fluorescence polarisation.
Assay [9] concerns the target T1, ^MBPATG13 full-length (UniProt O75143 1-517).
T1 sequence: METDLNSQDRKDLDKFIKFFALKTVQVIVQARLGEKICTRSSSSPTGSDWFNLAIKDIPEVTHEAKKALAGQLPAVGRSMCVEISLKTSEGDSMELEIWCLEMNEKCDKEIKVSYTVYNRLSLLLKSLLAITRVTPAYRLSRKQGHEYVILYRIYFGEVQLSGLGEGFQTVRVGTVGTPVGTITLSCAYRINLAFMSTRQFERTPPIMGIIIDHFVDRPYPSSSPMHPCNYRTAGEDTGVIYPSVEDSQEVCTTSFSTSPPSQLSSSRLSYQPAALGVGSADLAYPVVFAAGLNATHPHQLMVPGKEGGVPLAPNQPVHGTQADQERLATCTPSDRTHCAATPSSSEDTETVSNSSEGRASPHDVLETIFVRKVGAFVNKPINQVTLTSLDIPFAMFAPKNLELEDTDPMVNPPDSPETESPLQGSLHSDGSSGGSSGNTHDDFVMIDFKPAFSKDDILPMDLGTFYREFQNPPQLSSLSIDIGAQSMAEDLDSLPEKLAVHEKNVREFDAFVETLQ
As to the kind of experiment: fluorescence polarisation. On the technique in general: Fluorescence polarisation rises when a labelled molecule tumbles more slowly, as on binding a larger partner.

Turning to “ATG101 (from UniProt Q9BSB4 1-218) (natural protein)”, the stoichiometry N in assay [1] and in assay [2] was 2 throughout.

On to “ATG101 co-expressed with ULK1 (from UniProt Q9BSB4 1-218) (natural protein)”, for which, in assay [3], the stoichiometry N is 2.

In turn, “His-ATG101 (from UniProt Q9BSB4 1-218) (natural protein)” gave a stoichiometry N in assay [4] of 2.

In assay [5], “phospho-mimetic ATG101 mutants S11D and S203D (from UniProt Q9BSB4 1-218) (natural protein)” came in with a stoichiometry N of 2.

In [6], “phosphorylated ATG101 (His-ATG101 phosphorylated in vitro by ULK1) (from UniProt Q9BSB4 1-218) (natural protein)” had a Kd of 100 to 250 nM and a stoichiometry N of 2.

In assay [7], “phosphorylated ATG101 purified from insect cells treated with Okadaic Acid (from UniProt Q9BSB4 1-218) (natural protein)” displayed a stoichiometry N of 2.

B1: ^MBPATG9A (natural protein)
chain: MAQFDTEYQRLEASYSDSPPGEEDLLVHVAEGSKSPWHHIENLDLFFSRVYNLHQKNGFTCMLIGEIFELMQFLFVVAFTTFLVSCVDYDILFANKMVNHSLHPTEPVKVTLPDAFLPAQVCSARIQENGSLITILVIAGVFWIHRLIKFIYNICCYWEIHSFYLHALRIPMSALPYCTWQEVQARIVQTQKEHQICIHKRELTELDIYHRILRFQNYMVALVNKSLLPLRFRLPGLGEAVFFTRGLKYNFELILFWGPGSLFLNEWSLKAEYKRGGQRLELAQRLSNRILWIGIANFLLCPLILIWQILYAFFSYAEVLKREPGALGARCWSLYGRCYLRHFNELEHELQSRLNRGYKPASKYMNCFLSPLLTLLAKNGAFFAGSILAVLIALTIYDEDVLAVEHVLTTVTLLGVTVTVCRSFIPDQHMVFCPEQLLRVILAHIHYMPDHWQGNAHRSQTRDEFAQLFQYKAVFILEELLSPIVTPLILIFCLRPRALEIIDFFRNFTVEVVGVGDTCSFAQMDVRQHGHPQWLSAGQTEASVYQQAEDGKTELSLMHFAITNPGWQPPRESTAFLGFLKEQVQRDGAAASLAQGGLLPENALFTSIQSLQSESEPLSLIANVVAGSSCRGPPLPRDLQGSRHRAEVASALRSFSPLQPGQAPTGRAHSTMTGSGVDARTASSGSSVWEGQLQSLVLSEYASTEMSLHALYMHQLHKQQAQAEPERHVWHRRESDESGESAPDEGGEGARAPQSIPRSASYPCAAPRPGAPETTALHGGFQRRYGGITDPGTVPRVPSHFSRLPLGGWAEDGQSASRHPEPVPEEGSEDELPPQVHKV
In assay [8], B1 yielded a kon of 15000 M⁻¹ s⁻¹.

B2: phosphorylated ATG101^Alexa488 (natural protein)
chain: MNCRSEVLEVSVEGRQVEEAMLAVLHTVLLHRSTGKFHYKKEGTYSIGTVGTQDVDCDFIDFTYVRVSSEELDRALRKVVGEFKDALRNSGGDGLGQMSLEFYQKKKSRWPFSDECIPWEVWTVKVHVVALATEQERQICREKVGEKLCEKIINIVEVMNRHEYLPKMPTQSEVDNVFDTGLRDVQPYLYKISFQITDALGTSVTTTMRRLIKDTLAL
B2 gave a kon in [9] of 14.7 M⁻¹ s⁻¹.

B3: ATG101^Alexa488 (natural protein)
chain: B2 chain
In assay [9], B3 returned a kon of 14.7 M⁻¹ s⁻¹.

Source of the values: doi:10.1101/2025.06.27.661946 (bioRxiv, 2025).
